Source: the DeepSol protein solubility set

Assay: soluble on expression in E. coli; label from the status in PepcDB or PDB records

Sequence | soluble on expression in E. coli
MKLEIFSWWAGDEGPALEALIRLYKQKYPGVEVINATVTGGAGVNARAVLKTRMLGGDPPDTFQVHAGMELIGTWVVANRMEDLSALFRQEGWLQAFPKGLIDLISYKGGIWSVPVNIHRSNVMWYLPAKLKGWGVNPPRTWDKFLATCQTLKQKGLEAPLALGENWTQQHLWESVALAVLGPDDWNNLWNGKLKFTDPKAVRAWEVFGRVLDCANKDAAGLSWQQAVDRVVQGKAAFNIMGDWAAGYMTTTLKLKPGTDFAWAPSPGTQGVFMMLSDSFGLPKGAKNRQNAINWLRLVGSKEGQDTSNPLKGSIAARLDSDPSKYNAYGQSAMRDWRSNRIVGSLVHGAVAPESFMSQFGTVMEIFLQTRNPQAAANAAQAIADQVGLGRLGQHHHHHH | soluble
MTSSTGTRRLTAKGRATRDRIVAAAAQLMYERGVTGTSTEDILKAARVASPSQLYHYFGDKRGLVQAVIEHQTEQVLGFQKPLLSRLDSIEALEAWRDAVVEAQHARDCQGGCPLGSLASELSDLDPQARARLVAGYEQWGNAIREGLRSMRERGELDGGADPDRLALALLTALQGGLLMTQTRRDTIALEAVLNTMIDHIRFRTTP | soluble
GPGSMSDVDDLIEELFPKKEGGRAPPEGKGGAACEPPASQSNWDDTDEANSEAETTTRNRGTSVSLEAAASTTANVGDGRGEDFDDSDESVEETVMGGRHTVPFPPTPGNMSMACNSKCFVTNVGSGELRHPSVAQLLLTGEGKYDKCSSNEQLLLRKGAFHALKADAGNGCTDKTADEDGRKGGCPFILCRKCNYTVIRLQDAEWDDEEGKMDLYLTVRNFYPDWSRLASSLPVGQMRRGEQNTVLKTCPDSAAYCCQCSWLTVKCAQEVIDTRVTDHTKFVGKELTCCFATQLPLISGEKRRPPLWVCGGHVPKH | soluble
MLDYFFNPKGIAVIGASNDPKKLGYEVFKNLKEYKKGKVYPVNIKEEEVQGVKAYKSVKDIPDEIDLAIIVVPKRFVKDTLIQCGEKGVKGVVIITAGFGETGEEGKREEKELVEIAHKYGMRIIGPNCVGIMNTHVDLNATFITVAKKGNVAFISQSGALGAGIVYKTIKEDIGFSKFISVGNMADVDFAELMEYLADTEEDKAIALYIEGVRNGKKFMEVAKRVTKKKPIIALKAGKSESGARAASSHTGSLAGSWKIYEAAFKQSGVLVANTIDEMLSMARAFSQPLPRGNKVAIMTNAGGPGVLTADELDKRGLKLATLEEKTIEELRSFLPPMAAVKNPVDMIASARGEDYYRTAKLLLQDPNVDMLIAICVVPTFAGMTLTEHAEGIIRAVKEVNNEKPVLAMFMAGYVSEKAKELLEKNGIPTYERPEDVASAAYALVEQAKNVGILEVE | soluble
MSLTYDLLITDSHVITPKGMVEKNIVVENGKIELITNDSPDCDKKINGSGLVSIPGLIDPHVHYGVYSPIDQAAISESHAAAIGGVTTMIRMFRLKGSYKESLNKHLLASQNSHYIDYTLHASIFDDSQISEMQYCAENKIISFKIYMNLGGDVGHVYMEMNPGEEKLIAAEVNVTNELVEKIVKNAASLKCPVLVHAEDYQECSCGMKTEKEKNHDGLNAWSESRSPNFEAKSIQIICEYGRKYDCQIYFVHIGSKLALDKIKEEKKKGTKIFVETCPHYLTLSHETQTGYLAKVMPPIRTNNDVQSVWNALQNNEIDTIGTDHVANQLKLKLGGDDVWGALAGFPGIGTSLPILLSEGINKNRINLNQLANLTSTNSAKIFGLSGKGSLEKGYDADITMIDLKKEEKVSPELFGGFSDYLVYDGWNLKGWPVKTIVRGTVVAEDFEVIGKPGYGNFVPRKLSEGHHHHHH | not soluble
MSLQFSFDPVSNAPMVSFPSTQQPDLEKLRFKFAPVLSRSFAFNGGSRTGTLYGVQVPYVDNSKEFSQYAAKLFEVYKSLGADKQFAVPTIGLINHTSTLEHNQTVNLALEAIVSELELFIESLKYSGRQQRLVDLEECLSILNCLKTVQFTLDSEEENSRAKFIDSLISWVNRTDGEPSEAVIAKVLGDGKQTPILENPYFWRLLCQLIIRGLFDQAVAAIEKSELLSYLADKCSATHTMVQDMVNLLQGYPRELEPVYREWKDLVLQLHLNWSQSEHKISIELASSLEDCLLIMCGNKSKIIYYSKTWYECYCGLMLYYIPSLQLSEEYLQLVLKEHPLDVTSPWEQACVSIITGKIYSILPVLDSLDSCTAAFTAAICEAKGLLENDLLDDGGLEVSNTGDEMFGLGNTMASYLLNQFALSIVTYEDKNLWAVAIGIIYLTPNYSDAAKRMMIAELLPHYPFQTNDDIEWMLTICAKWKLPQIARTIYRVLGQEALYLNNIIEAISNFSKAGEFEWVKEGHHHHHH | soluble
MIVTEHLFAIEDQTECLISALLESDAVQNYKETKKAMYASAEVAQLQKAFLEAKSAFERVEAYGIHAPDFREKQRALRKAKRALDLNEIVANYRFAETNVQTLLDTIGLKIAQLISEDIKVDAGNPFFERGKKHSGCGGSCHAS | not soluble
MNEKEKIIEYWRRRARECLDDAKLLLKNERLHSAVNRIYYALFYQVSALLLAKGLSFSKHSGVLAAFNREFVKTGKVNKELGKFYNRMFEHRKTGDYGELVEFEEENVKDWIRKAEGFLDAIEKLIEDLKRA | not soluble
MGSDKIHHHHHHMSPMTIPSEMKALLLVGDGYTKTPSGSALEAMEPYLEQGRIAVPAPGPSQVLIKVNLASINPSDVAFIKGQYGQPRVKGRPAGFEGVGTIVAGGDEPYAKSLVGKRVAFATGLSNWGSWAEYAVAEAAACIPLLDTVRDEDGAAMIVNPLTAIAMFDIVKQEGEKAFVMTAGASQLCKLIIGLAKEEGFRPIVTVRRDEQIALLKDIGAAHVLNEKAPDFEATLREVMKAEQPRIFLDAVTGPLASAIFNAMPKRARWIIYGRLDPDATVIREPGQLIFQHKHIEGFWLSEWMRQFKERRGPAILEAQKRFSDGRWSTDVTAVVPLAEAIAWVPAELTKPNGKVFIRP | not soluble
VARADESLQQVVMAYFGVQFKSEQKAIALKAMQHIVQSFSLDNGPQNHDITHHTDNQGYENYIVVGYWRDPGAYCRWFRSTEVSHWWDSDERLNDGIGYFREIVIPRADQFETLYAFKEDLPGVGAVMDDISDDIQEHGYWGSARERF | not soluble
MIDGIESGLGIAQAFPSVTGEAKPGNLAADGGKFFGELVSKVSELQAQSDTAIKGLVSGESKGLHEVMIAMEKSSISFQFLSQVRNKAVEAYQEVMRMQV | not soluble
MTDFLEIRPLTKEAFTPFGDVIETTPSSMRHINGGQTERHHALSAPEAAGEGARIILNIFRGQPRVFPHKIDMMERHPLGSQSFSPLSGRPFLVVVAQDDGGRPARPQVFLARGDQGVNYRRNVWHYPLMPLQAVSDFLVADREGPGNNLEEYFFDEPFMIAEPSLAAALEHHHHHH | soluble
MLDGLTYAYGDLIEKVPDFEIIQRKSPKSGKVALVSGGGSGHKPAHAGFVGEGMLSAAVCGAIFTSPTPDQIYEAIKSADEGAGVLLIIKNYLGDVMNFEMAREMAEMEEIKVEQIIVDDDIAVENSLYTQGRRGVAGTVLVHKILGAAAHQEASLDEIKDLADKVVKNIKTIGLALSAATVPEVGKPGFVLDDNEIEYGVGIHSEPGYRREKMKTSYELATELVGKLKEEFKFEAGQKYGILVNGMGATPLMEQFIFMNDVAKLLTEENIEILFKKVGNYMTSIDMAGLSLTMIKLEDDQWLKNLNEDVKTISWGLEHHHHHH | not soluble
MTTVRIPAGWPATEEEARAVQDELRGRVILDEPGPPPGTGRVTGVDVAYDDERDVVVAAAVVLDAATLDVVAEATAVGEVSFPYVPGLLAFREIPTVLAALDALPCPPGLIVCDGYGVAHPRRFGLASHLGVLTGLPTIGVAKNPFTFSYEDPGAPRGSAAPLLAGADEVGRALRTQSGVKPVFVSVGHRVDLDHACAHTLALTPKYRIPETTRRADSLCRRALKEATALEHHHHHH | soluble
GSMIKLFSLKQQKKEEEKGSSKKASAAQLRIQKDINELNLPKTCDISFSDPDDLLNFKLVICPDEGFYKSGKFVFSFKVGQGYPHDPPKVKCETMVYHPNIDLEGNVALNILREDWKPVLTINSIIYGLQYLFLEPNPEDPLNKEAAEVLQNNRRLFEQNVQRSMRGGYIGSTYFERCLK | soluble
MVGQREPAPVEEVKPAPEQPAEPQQPVPTVPSVPTIPQQPGPIEHEDQTAPPAPHIRHYDWNGAMQPMVSKMLGADGVTAGSVLLVDSVNNRTNGSLNAAEATETLRNALANNGKFTLVSAQQLSMAKQQLGLSPQDSLGTRSKAIGIARNVGAHYVLYSSASGNVNAPTLQMQLMLVQTGEIIWSGKGAVSQQLEHHHHHH | soluble
